Measurements from the supplement of paper PMC6379048.

Legend:
Experiment in all cases: Kd (EC50 corrected by depletion factor)
MEX3B = target: T1, MEX3B (UniProt Q6ZN04)
T1 sequence: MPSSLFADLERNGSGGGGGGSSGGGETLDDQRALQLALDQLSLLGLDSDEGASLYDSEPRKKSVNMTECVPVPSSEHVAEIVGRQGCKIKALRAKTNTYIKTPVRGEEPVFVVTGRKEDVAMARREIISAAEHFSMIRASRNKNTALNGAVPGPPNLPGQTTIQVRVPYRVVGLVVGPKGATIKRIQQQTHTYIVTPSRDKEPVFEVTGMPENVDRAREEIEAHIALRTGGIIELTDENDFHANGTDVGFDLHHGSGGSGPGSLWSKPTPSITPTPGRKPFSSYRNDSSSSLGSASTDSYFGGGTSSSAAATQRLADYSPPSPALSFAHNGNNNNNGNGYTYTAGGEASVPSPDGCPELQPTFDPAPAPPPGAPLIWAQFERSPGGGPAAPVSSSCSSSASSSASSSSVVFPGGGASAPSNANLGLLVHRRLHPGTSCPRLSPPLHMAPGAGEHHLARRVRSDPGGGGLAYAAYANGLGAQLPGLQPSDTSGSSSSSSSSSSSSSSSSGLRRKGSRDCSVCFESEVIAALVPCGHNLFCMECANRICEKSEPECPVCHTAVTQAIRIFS
Outline: (§1)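 Over three biological replicates and two independent experiments, proteins captured on NHS-Sepharose beads carrying 5′-amino-C6 RNA oligos were quantified by label-free LC-MS/MS and normalised to the control. Capture lasted 30 min at 4°C and followed a 1 h pre-incubation at 4°C of HEK293-FT lysate (2.5 mg protein/well) with the same oligos in free form (0 nM to 30 μM). EC50 was taken from a four-parameter log-logistic fit, and Kd was EC50 corrected by a protein-dependent depletion factor.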

RBMS2 = target: T2, RBMS2 (UniProt Q15434)
T2 sequence: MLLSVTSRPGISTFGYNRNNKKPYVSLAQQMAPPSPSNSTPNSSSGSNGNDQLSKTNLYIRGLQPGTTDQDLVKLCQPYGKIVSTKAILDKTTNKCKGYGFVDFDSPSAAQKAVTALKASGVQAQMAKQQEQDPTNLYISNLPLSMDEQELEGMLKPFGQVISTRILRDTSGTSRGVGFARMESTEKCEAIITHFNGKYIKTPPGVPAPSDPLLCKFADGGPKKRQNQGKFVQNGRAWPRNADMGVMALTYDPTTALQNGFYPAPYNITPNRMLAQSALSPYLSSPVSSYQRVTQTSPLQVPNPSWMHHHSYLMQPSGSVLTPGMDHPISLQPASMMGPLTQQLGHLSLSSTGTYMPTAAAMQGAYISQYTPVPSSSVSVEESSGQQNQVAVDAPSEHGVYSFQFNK
Outline: as §1

FIP1L1 = target: T3, FIP1L1 (UniProt Q6UN15)
T3 sequence: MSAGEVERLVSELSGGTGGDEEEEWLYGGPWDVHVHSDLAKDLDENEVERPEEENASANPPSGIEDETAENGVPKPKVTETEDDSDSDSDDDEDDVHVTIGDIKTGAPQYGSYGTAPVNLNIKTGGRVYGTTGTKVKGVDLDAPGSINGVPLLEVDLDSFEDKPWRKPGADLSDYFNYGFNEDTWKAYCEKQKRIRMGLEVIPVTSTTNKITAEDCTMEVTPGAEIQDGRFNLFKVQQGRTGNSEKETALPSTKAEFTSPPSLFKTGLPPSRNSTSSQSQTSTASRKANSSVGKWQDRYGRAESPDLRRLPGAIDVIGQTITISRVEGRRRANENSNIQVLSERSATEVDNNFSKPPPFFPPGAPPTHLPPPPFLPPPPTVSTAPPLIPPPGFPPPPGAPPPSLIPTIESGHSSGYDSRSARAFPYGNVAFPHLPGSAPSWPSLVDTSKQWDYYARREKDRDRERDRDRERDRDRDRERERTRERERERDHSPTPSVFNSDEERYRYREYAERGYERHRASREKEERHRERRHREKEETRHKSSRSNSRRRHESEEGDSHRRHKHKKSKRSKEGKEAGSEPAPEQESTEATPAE
Outline: as §1

RPS20 = RPS20 (UniProt P60866)
Outline: as §1

XAB2 = target: T4, XAB2 (UniProt Q9HCS7)
T4 sequence: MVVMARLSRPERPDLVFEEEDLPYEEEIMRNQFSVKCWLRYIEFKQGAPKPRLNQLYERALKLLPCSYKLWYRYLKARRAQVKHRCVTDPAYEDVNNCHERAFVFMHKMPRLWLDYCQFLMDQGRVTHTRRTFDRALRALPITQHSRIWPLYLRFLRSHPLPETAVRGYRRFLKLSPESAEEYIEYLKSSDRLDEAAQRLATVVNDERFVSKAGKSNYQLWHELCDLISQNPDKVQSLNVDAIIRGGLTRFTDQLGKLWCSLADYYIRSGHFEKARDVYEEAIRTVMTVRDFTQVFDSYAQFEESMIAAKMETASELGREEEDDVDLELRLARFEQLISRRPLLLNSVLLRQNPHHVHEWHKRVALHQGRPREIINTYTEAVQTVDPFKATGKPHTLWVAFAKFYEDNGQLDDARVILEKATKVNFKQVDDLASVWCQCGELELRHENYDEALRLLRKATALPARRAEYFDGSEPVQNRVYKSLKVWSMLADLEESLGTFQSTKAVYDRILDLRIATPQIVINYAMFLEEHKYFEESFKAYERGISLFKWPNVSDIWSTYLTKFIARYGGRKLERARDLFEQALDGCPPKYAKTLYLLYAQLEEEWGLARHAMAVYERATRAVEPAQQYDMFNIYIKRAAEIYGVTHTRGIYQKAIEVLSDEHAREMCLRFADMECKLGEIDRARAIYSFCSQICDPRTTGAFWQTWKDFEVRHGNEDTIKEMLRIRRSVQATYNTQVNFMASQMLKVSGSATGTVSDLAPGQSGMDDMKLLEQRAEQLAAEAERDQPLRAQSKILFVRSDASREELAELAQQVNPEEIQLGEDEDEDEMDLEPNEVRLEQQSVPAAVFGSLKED
Outline: as §1

MSI2 = MSI2 (UniProt Q96DH6)
Outline: as §1

Sequence of MSI2 (Q96DH6 whole entry): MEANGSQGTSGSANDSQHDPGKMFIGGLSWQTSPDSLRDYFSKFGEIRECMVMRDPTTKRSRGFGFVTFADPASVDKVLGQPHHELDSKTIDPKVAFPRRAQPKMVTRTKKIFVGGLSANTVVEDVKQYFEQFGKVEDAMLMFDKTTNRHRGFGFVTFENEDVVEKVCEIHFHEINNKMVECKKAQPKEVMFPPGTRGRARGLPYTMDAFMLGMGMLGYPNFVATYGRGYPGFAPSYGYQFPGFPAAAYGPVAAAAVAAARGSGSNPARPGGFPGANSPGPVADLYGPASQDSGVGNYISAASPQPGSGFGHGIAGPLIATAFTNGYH

| Sequence | Kd (MEX3B) | Kd (RBMS2) | Kd (FIP1L1) | Kd (RPS20) | Kd (XAB2) | Kd (MSI2) |
| --- | --- | --- | --- | --- | --- | --- |
| AAUAAA | 327 nM | 158 nM | 8.24 nM | 2300 nM | 322 nM | 104 nM |
| CUGUCCU |  |  |  | 59.8 nM |  |  |
| UAUUUAU | 220 nM | 274 nM | 482 nM |  | 286 nM | 475 nM |
